{"source": "paper PMC5777261", "about": "(The Journal of Biological Chemistry, 2017)", "assay_in_all_cases": "radioligand binding; HEK293 cells expressing ACKR3-YFP or mutants, pretreated 5 min at 37 °C with 100 μM phenylarsine oxide; 50 pM 125I-CXCL12 tracer in 50 mM HEPES pH 7.4, 5 mM MgCl2, 1 mM CaCl2, 0.2% BSA, with or without unlabeled CXCL12 or CXCL11, 30 min at 37 °C; bound label counted in a γ counter; IC50 taken as proxy for ligand affinity", "key": {"[1]": {"target": "ACKR3-YFP (wildtype ACKR3 fused C-terminally to YFP) (UniProt P25106)", "sequence (P25106 whole entry, the tested form may be a part)": "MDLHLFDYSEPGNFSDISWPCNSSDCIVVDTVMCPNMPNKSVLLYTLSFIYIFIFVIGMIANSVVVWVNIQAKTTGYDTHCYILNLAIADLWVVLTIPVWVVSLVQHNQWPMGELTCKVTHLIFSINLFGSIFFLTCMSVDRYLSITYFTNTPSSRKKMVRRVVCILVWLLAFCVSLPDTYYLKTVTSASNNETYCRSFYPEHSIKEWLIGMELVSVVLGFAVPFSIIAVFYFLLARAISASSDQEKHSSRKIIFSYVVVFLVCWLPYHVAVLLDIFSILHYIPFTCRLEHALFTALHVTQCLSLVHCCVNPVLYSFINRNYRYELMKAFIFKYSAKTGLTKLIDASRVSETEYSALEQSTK"}, "ACKR3 D141N-YFP": {"target": "ACKR3 D141N-YFP (UniProt P25106)", "sequence (P25106 whole entry D141N)": "as the sequence (P25106 whole entry, the tested form may be a part) above, with D141N counted along it"}, "ACKR3 D90N-YFP": {"target": "ACKR3 D90N-YFP (UniProt P25106)", "sequence (P25106 whole entry D90N)": "as the sequence (P25106 whole entry, the tested form may be a part) above, with D90N counted along it"}, "ACKR3 N127D-YFP": {"target": "ACKR3 N127D-YFP (UniProt P25106)", "sequence (P25106 whole entry N127D)": "as the sequence (P25106 whole entry, the tested form may be a part) above, with N127D counted along it"}, "ACKR3 N127K-YFP": {"target": "ACKR3 N127K-YFP (UniProt P25106)", "sequence (P25106 whole entry N127K)": "as the sequence (P25106 whole entry, the tested form may be a part) above, with N127K counted along it"}, "ACKR3 Y315A-YFP": {"target": "ACKR3 Y315A-YFP (UniProt P25106)", "sequence (P25106 whole entry Y315A)": "as the sequence (P25106 whole entry, the tested form may be a part) above, with Y315A counted along it"}, "ACKR3 Y143A-YFP": {"target": "ACKR3 Y143A-YFP (UniProt P25106)", "sequence (P25106 whole entry Y143A)": "as the sequence (P25106 whole entry, the tested form may be a part) above, with Y143A counted along it"}, "ACKR3 N127S-YFP": {"target": "ACKR3 N127S-YFP (UniProt P25106)", "sequence (P25106 whole entry N127S)": "as the sequence (P25106 whole entry, the tested form may be a part) above, with N127S counted along it"}, "ACKR3 R142A-YFP": {"target": "ACKR3 R142A-YFP (UniProt P25106)", "sequence (P25106 whole entry R142A)": "as the sequence (P25106 whole entry, the tested form may be a part) above, with R142A counted along it"}}, "data": [{"substance": "CXCL12 (unlabeled recombinant chemokine) (from UniProt P48061 22-93) (ligand)", "values": [{"measurement": "IC50", "setting": "[1]", "value": 5.9, "unit": "nM"}, {"measurement": "Log IC50", "setting": "[1]", "value": -8.2}, {"measurement": "Log IC50", "setting": "ACKR3 D141N-YFP", "value": -9.1}, {"measurement": "IC50", "setting": "ACKR3 D90N-YFP", "value": 12.1, "unit": "nM"}, {"measurement": "Log IC50", "setting": "ACKR3 D90N-YFP", "value": -7.9}, {"measurement": "IC50", "setting": "ACKR3 N127D-YFP", "value": 10.9, "unit": "nM"}, {"measurement": "Log IC50", "setting": "ACKR3 N127D-YFP", "value": -8.2}, {"measurement": "IC50", "setting": "ACKR3 N127K-YFP", "value": 9.9, "unit": "nM"}, {"measurement": "Log IC50", "setting": "ACKR3 N127K-YFP", "value": -8.1}, {"measurement": "IC50", "setting": "ACKR3 Y315A-YFP", "value": 24.7, "unit": "nM"}, {"measurement": "Log IC50", "setting": "ACKR3 Y315A-YFP", "value": -7.7}, {"measurement": "IC50", "setting": "ACKR3 Y143A-YFP", "value": 3, "unit": "nM"}, {"measurement": "Log IC50", "setting": "ACKR3 Y143A-YFP", "value": -8.5}, {"measurement": "IC50", "setting": "ACKR3 N127S-YFP", "value": 1.7, "unit": "nM"}, {"measurement": "Log IC50", "setting": "ACKR3 N127S-YFP", "value": -8.8}, {"measurement": "IC50", "setting": "ACKR3 R142A-YFP", "value": 45.1, "unit": "nM"}, {"measurement": "Log IC50", "setting": "ACKR3 R142A-YFP", "value": -7.4}]}, {"substance": "^125I-CXCL12 radiolabel tracer (from UniProt P48061 22-93) (ligand)", "values": [{"measurement": "125I-CXCL12 tracer binding, % of ACKR3 (the pair that is blocked)", "setting": "[1]", "value": 100, "unit": "%"}, {"measurement": "125I-CXCL12 tracer binding, % of ACKR3 (the pair that is blocked)", "setting": "ACKR3 D141N-YFP", "value": 64, "unit": "%"}, {"measurement": "125I-CXCL12 tracer binding, % of ACKR3 (the pair that is blocked)", "setting": "ACKR3 D90N-YFP", "value": 92, "unit": "%"}, {"measurement": "125I-CXCL12 tracer binding, % of ACKR3 (the pair that is blocked)", "setting": "ACKR3 N127D-YFP", "value": 70, "unit": "%"}, {"measurement": "125I-CXCL12 tracer binding, % of ACKR3 (the pair that is blocked)", "setting": "ACKR3 N127K-YFP", "value": 83, "unit": "%"}, {"measurement": "125I-CXCL12 tracer binding, % of ACKR3 (the pair that is blocked)", "setting": "ACKR3 Y315A-YFP", "value": 69, "unit": "%"}, {"measurement": "125I-CXCL12 tracer binding, % of ACKR3 (the pair that is blocked)", "setting": "ACKR3 Y143A-YFP", "value": 93, "unit": "%"}, {"measurement": "125I-CXCL12 tracer binding, % of ACKR3 (the pair that is blocked)", "setting": "ACKR3 N127S-YFP", "value": 87, "unit": "%"}, {"measurement": "125I-CXCL12 tracer binding, % of ACKR3 (the pair that is blocked)", "setting": "ACKR3 R142A-YFP", "value": 66, "unit": "%"}]}]}
